In PMC8479633 one finds percent of the population as trimer and percent of the population as dimer data, which are given here for 1 molecule.

Assay [1] has as its target wild type full-length SMAD2 (S2FLWT), Q15796. Nature of the assay: SAXS with ensemble optimisation. Particulars: remark: other sources report otherwise.
Assay [2] has the same target. Nature of the assay: SAXS with ensemble optimisation. Particulars: remark: other sources report otherwise. This is another data set of the same source.

B1: wild type full-length SMAD2 (S2FLWT), Q15796 1-467 (natural protein)
chain: MSSILPFTPPVVKRLLGWKKSAGGSGGAGGGEQNGQEEKWCEKAVKSLVKKLKKTGRLDELEKAITTQNCNTKCVTIPSTCSEIWGLSTPNTIDQWDTTGLYSFSEQTRSLDGRLQVSHRKGLPHVIYCRLWRWPDLHSHHELKAIENCEYAFNLKKDEVCVNPYHYQRVETPVLPPVLVPRHTEILTELPPLDDYTHSIPENTNFPAGIEPQSNYIPETPPPGYISEDGETSDQQLNQSMDTGSPAELSPTTLSPVNHSLDLQPVTYSEPAFWCSIAYYELNQRVGETFHASQPSLTVDGFTDPSNSERFCLGLLSNVNRNATVEMTRRHIGRGVRLYYIGGEVFAECLSDSAIFVQSPNCNQRYGWHPATVCKIPPGCNLKIFNNQEFAALLAQSVNQGFEAVYQLTRMCTIRMSFVKGWGAEYRRQTVTSTPCWIELHLNGPLQWLDKVLTQMGSPSVRCSSMS
In the case of B1, the percent of the population as trimer in assay [1] turned out to be 16.4%. In assay [2], this molecule had a percent of the population as dimer of 18% and a percent of the population as trimer of 1%.
